{
  "source": "patent US20150366985A1",
  "molecular_target": "protein A found on S. aureus (Staphylococcus aureus) (UniProt P02976)",
  "sequence (P02976 37-485)": "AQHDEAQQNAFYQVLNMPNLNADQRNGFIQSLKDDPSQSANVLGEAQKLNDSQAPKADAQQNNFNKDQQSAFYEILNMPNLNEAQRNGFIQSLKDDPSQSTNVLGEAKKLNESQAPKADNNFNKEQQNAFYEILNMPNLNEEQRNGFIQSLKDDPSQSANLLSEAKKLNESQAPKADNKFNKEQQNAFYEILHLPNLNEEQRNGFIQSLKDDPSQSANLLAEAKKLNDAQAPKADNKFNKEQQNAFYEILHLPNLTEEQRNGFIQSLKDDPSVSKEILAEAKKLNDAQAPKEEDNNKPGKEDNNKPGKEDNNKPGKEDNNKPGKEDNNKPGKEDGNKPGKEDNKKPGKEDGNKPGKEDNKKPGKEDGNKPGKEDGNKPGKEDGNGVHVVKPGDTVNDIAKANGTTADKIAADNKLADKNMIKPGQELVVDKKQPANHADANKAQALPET",
  "test": "FACS, Alexa-488 labeled antibodies at 0.08-50 ug/mL on MRSA isolated from infected mouse kidneys; low level binding attributed by the filing to protein A",
  "data": [
    {"substance": "gD antibody (negative control human IgG1 that does not recognize S. aureus)", "values": [
      {"measurement": "fold lower binding than the S4497 antibody (fold lower than S4497 antibody)", "value": 30}
    ]}
  ]
}
